A short description of the data set: soluble on expression in E. coli; label from the status in PepcDB or PDB records.
On to “MKAVIVYASVHHGNTKKIAEAMASVISADVIDVTRKIKPDLSGYDVIGFASGVYFHTFHERIKKCIEENLFSKGQKVFLVATCGLGYRDYTKGIKDILAKKHVSFIGNFQCRGWDTYGIFGKIGGIAKKHPNDRDLKEAQQFVLKTVCEKTIDDVALLEHHHHHH”, for which the “soluble on expression in E. coli” value is listed as “soluble”.

For the sequence “GPGSMVDDFSSLSSPYVFLHGPLCSKDTCAVAAIGTTARLPYARPHSLLPLTSFLALRPAVSSGGLRHTRAYTHLLDTRVQVRIAMSEAAPPPVLGTASSAVAPQPFGGSEASRKRRLKPISFQRMAMIQEEIARIDKHLEALEASESKVVDPDSVGQHNLTTEDVIDPVVLHMLTVELCQLAASGDAVGARILLTGGADPNSRDYDGRTLLHIACMNGRLSVVTVLLEFSADASLLDRDGNTPLEVAEEYGFGDVAQVLSGYFDAGANAVPDSFTWKPPSFESTPVSIHQPDFSAVP”, the “soluble on expression in E. coli” value was “not soluble”.

As for “GHMYETIRYEVKGQVAWLTLNRPDQLNAFTEQMNAEVTKALKQAGADPNVRCVVITGAGRAFCAGEDLSGVTEEMDHGDVLRSRYAPMMKALHHLEKPVVAAVNGAAAGAGMSLALACDFRLLSEKASFAPAFIHVGLVPDAGHLYYLPRLVGRAKALELAVLGEKVTAEEAAALGLATKVIPLSDWEEEVKQFAERLSAMPTKAIGLIKRLLRESEETTFDRYLEREAECQRIAGLTSDHREGVKAFFEKRKPLFQGN”, the “soluble on expression in E. coli” value is “soluble”.

For “MGSDKIHHHHHHMAKIGRNEPCPCGSGKKYKRCCMSGVGKQQADFVDSIEQMLAMNPDLSMDELNIIAEHQSNKINTTPHKDFCGLAPGQVNNWLYAPFPELEGITINTPSDLSTSPVMRYLKLMLETALANGGQIKATAKGNLPAALVKEASAFLPEFAVAPFERAISISEFAGANEDKFNALHYCRVLAKIAGIFKLKSNKFHVSAWAKHQYQRAGLESFFPIMLETAVYKYNWGYFDLWENEIPLQHFWLFMLWRLQHHKSHERLVDEMIQAFPDLLNELYEEEYMSDRDKLAVLIESRFIHRFLQFFGFVMVDPRRVIDGKRVAAQVTCLRSMHETFNFRIE”, the “soluble on expression in E. coli” value was “not soluble”.

Regarding “VSPKTYKDADFYVAPTQQDVNYDLVDDFGANGNDTSDDSNALQRAINAISRKPNGGTLLIPNGTYHFLGIQMKSNVHIRVESDVIIKPTWNGDGKNHRLFEVGVNNIVRNFSFQGLGNGFLVDFKDSRDKNLAVFKLGDVRNYKISNFTIDDNKTIFASILVDVTERNGRLHWSRNGIIERIKQNNALFGYGLIQTYGADNILFRNLHSEGGIALRMETDNLLMKNYKQGGIRNIFADNIRCSKGLAAVMFGPHFMKNGDVQVTNVSSVSCGSAVRSDSGFVELFSPTDEVHTRQSWKQAVESKLGRGCAQTPYARGNGGTRWAARVTQKDACLDKAKLEYGIEPGSFGTVKVFDVTARFGYNADLKQDQLDYFSTSNPMCKRVCLPTKEQWSKQGQIYIGPSLAAVIDTTPETSKYDYDVKTFNVKRINFPVNSHKTIDTNTESSRVCNYYGMSECSSSRWER”, the “soluble on expression in E. coli” value was “soluble”.

Take “MQDQVIICDLDNTIFDTSSIDPELFASLLHKATEYLSGSFTAEIILSIIQDIVSNPFDRVCEKYGLPKSMILPVLDELNGISLEHSAMVPYEDYAAFRAIPAYKILVTTGFKRLQEEKLRKLQIRQDFDRIIINDPVYANSSKLDIFRELSRELDLKDRKTYVVGDDPASEIKAGRELGFTTVLMVRKEYLSNSYTDYIISSFEGLRDLLRDNMENDYALRK”: the “soluble on expression in E. coli” value is listed as “soluble”.

In the case of “NKPSLLLYIHGFNSSPLSHKAQVMAEYCKVHRPDIKVIVPRLPSYPSQAAEFLVQLVEEYKDTHQIGLVGSSLGGYLSTWLNHQYGFKAALVNPAVKPYELLADYLGKQVNPYTQEEYFLEEKHMEELLALQVETLHSVDDLWLLQQEGDEVLDYRQAVDKYLACKQTIEKGGDHSFVNFERYPEQIIQFLN”, the “soluble on expression in E. coli” value is recorded as “not soluble”.

Take “VDLEKFKFHARIDDDFEDSYIQLLLDAAINYVSKITGVPNDENAPPEYDLAIMILALHWYTNREVLSDRGTNQVPYGLGMLIANLRTN”: the “soluble on expression in E. coli” value is “not soluble”.
